Biological target: T1, Trypsin Soybean Inhibitor (TSI) (Glycine max, UniProt P01070)
T1 chain: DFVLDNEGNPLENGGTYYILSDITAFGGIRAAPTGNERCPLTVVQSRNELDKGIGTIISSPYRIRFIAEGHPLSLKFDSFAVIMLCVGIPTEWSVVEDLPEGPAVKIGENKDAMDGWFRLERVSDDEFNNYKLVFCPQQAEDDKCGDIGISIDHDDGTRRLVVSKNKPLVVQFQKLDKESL
Test: enzyme inhibition assay (BAPNA substrate, Cheng-Prusoff)

B1: Implantation serine proteinase complex (ISP1-ISP2) (protein)
chain 1: KPVGIVGGQRTPPGKWPWQVSLRMYSYEVNSWVHICGGSIIHPQWILTAAHCIQSQDADPAVYRVQVGEVYLYKEQELLNISRIIIHPDYNDVSKRFDLALMQLTALLVTSTNVSPVSLPKDSSTFDSTDQCWLVGWGNLLQRVPLQPPYQLHEVKIPIQDNKSCKRAYRKKSSDEHKAVAIFDDMLCAGTSGRGPCFGDSGGPLVCWKSNKWIQVGVVSKGIDCSNNLPSIFSRVQSSLAWIHQHIQ
chain 2: not shown
Ki: 2.18 µM
